The values below come from publication PMC5924885 (Proceedings of the National Academy of Sciences of the …, 2018).

In general, Kd refers to the equilibrium constant for the complex coming apart. The low end stands for a tighter complex, the high end for a looser complex.

For this assay, the target named is Akt1 kinase domain (Akt1^KD) (human, UniProt P31749 144-472, exclusively monophosphorylated, predominantly in the turn motif (T450)). In words: fluorescence polarisation. In general terms: Polarisation of emitted light reports the rotation of a fluorescent probe.
Akt1 kinase domain (Akt1^KD), sequence (P31749 144-472): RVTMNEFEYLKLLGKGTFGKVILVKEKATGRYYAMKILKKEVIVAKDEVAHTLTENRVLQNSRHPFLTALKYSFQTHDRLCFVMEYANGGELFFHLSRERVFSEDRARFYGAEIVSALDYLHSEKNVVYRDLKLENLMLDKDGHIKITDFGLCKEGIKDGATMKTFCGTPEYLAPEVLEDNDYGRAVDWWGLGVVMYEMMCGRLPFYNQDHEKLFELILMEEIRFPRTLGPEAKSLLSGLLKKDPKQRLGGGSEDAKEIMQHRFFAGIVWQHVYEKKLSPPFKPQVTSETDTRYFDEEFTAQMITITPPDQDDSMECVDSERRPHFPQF

B1: Atto488-labeled Akt1 PH domain (Akt1^1-120 T101C) (domain or fragment, human, UniProt P31749 1-120, looked up)
chain: MSDVAIVKEGWLHKRGEYIKTWRPRYFLLKNDGTFIGYKERPQDVDQREAPLNNFSVAQCQLMKTERPRPNTFIIRCLQWTTVIERTFHVETPEEREEWTCAIQTVADGLKKQEEEEMDF
modifications: Atto488 (maleimide) label, about 50% labeling efficiency
Molecule B1 registered a Kd of 7 µM. This lies in the single-digit micromolar range.
